Laboratory results: patent US20240287172A1 (SCIRHOM, published 2024)
Changes are numbered by the printed parent chain.

T1: hiR1-FL-WT-T7 (human, UniProt Q96CC6 1-855)
T1 construct: on MEF-DKO cells
T1 sequence: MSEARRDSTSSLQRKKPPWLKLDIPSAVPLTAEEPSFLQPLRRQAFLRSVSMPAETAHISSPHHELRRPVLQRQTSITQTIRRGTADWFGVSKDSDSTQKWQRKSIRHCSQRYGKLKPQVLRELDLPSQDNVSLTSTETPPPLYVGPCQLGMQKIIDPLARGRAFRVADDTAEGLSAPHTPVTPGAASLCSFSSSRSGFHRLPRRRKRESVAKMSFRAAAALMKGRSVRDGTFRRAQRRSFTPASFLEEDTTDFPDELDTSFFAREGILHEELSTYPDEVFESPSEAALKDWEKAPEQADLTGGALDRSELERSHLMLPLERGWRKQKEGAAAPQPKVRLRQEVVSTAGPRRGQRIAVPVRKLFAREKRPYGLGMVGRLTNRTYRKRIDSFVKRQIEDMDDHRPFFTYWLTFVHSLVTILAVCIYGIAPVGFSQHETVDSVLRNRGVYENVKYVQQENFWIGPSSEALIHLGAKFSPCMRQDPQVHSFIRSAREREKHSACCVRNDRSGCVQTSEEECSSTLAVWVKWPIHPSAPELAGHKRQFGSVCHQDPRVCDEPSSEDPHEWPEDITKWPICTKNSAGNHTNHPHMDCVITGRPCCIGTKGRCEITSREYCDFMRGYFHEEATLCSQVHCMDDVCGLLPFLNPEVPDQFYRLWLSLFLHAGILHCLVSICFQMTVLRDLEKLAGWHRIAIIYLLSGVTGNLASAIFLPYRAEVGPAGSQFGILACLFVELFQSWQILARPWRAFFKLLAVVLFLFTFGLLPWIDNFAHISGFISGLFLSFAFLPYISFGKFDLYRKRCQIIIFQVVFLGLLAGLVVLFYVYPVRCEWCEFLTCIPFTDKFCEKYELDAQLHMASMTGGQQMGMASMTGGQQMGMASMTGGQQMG

T2: hiR2-FL-E557D-T7 (human, UniProt Q6PJF5 1-856)
T2 sequence: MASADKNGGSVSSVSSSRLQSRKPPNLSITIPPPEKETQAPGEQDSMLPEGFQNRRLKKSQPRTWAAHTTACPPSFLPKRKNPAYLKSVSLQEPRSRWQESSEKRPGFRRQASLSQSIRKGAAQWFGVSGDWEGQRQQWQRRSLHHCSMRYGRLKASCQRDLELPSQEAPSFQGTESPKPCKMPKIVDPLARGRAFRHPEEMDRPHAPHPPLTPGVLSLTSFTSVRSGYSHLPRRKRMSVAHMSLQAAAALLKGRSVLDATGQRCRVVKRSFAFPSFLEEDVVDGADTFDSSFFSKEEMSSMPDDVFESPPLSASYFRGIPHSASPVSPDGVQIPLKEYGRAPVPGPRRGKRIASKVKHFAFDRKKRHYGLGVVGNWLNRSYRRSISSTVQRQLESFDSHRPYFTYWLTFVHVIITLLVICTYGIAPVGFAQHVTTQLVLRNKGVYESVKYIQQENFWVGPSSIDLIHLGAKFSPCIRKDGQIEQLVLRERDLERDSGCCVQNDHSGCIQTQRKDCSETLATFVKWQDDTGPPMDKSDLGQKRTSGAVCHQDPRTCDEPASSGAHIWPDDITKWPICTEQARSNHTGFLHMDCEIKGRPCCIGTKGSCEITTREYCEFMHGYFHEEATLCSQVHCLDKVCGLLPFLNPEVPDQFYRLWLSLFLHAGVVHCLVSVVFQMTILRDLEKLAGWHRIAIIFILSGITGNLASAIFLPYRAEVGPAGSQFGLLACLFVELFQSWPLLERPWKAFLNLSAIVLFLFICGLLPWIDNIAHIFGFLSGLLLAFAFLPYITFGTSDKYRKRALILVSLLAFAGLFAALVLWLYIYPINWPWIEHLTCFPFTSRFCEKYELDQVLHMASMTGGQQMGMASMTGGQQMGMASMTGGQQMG

B1: antibody 16 (antibody, V domains shown)
VH: QVTLKESGPGILQPSQTLSLTCSFSGFSLSTFALGVGWIRQPSGRGLEWLAHIWWDDDKYYNPALKSRLTISKDTSKNHVFLKIANVDTADTATYYCARITTYYYGMDYWGQGTSVTVSS
VL: DIVLSQSPATLSVTPGDSVSLFCRASQSIGNHLHWYQQESHASPRLLIKYASQSISGIPSRFSGSGSGTDFTLSINSVETEDFGMYFCQQSYNWPLTFGAGTKLELK
notes: mouse IgG, kappa light chain; also called clone #16; purified antibody 16
B2: antibody 3 (antibody, V domains shown)
VH: QVTLKESGPGILQPSQTLSLTCSFSGFSLTTFAMGIGWVRQPSGKGLEWLAHIWWDGEKYNNPVLKSRLTISKDTSKNQVFLRIANVDTPDTATYYCARISSIYYIIDNWGQGTSVTVSS
VL: B1 VL with S5T, D17H, F22S, G30S, H32N, Q38K, E39K, A42E, A51V
notes: mouse IgG, kappa light chain; also called clone #3; purified antibody 3
B3: antibody 5 (antibody, V domains shown)
VH: QVTLKESGPGILQPSQTLSLTCSFSGFSLSTFGMGVGWIRQPSGKGLEWLAHIWWDDEKYYNSALKSRLTISKATSKNQAFLKIANVDTADTATYYCARISNYGSNYWYFNVWGTGTTVTVSS
VL: QVVLTQSPALMSASPGEKVTMTCSAGSSVSCMYWYQQKPGSSPRVLIYDTSNLASGVPARFTGSGSGTSYSLTISRMEAEDAASYYCQQWNSYPLTFGAGTKLELK
notes: mouse IgG, kappa light chain; also called clone #5; purified antibody 5
B4: antibody 43 (antibody, V domains shown)
VH: B3 VH with T3A, P42S, H52N, E58D, S63P, A74D, T75A, S101G, N111D
VL: QIVLTQSPAIMSASPGERVTMTCSANSRISYMYWYQQKPGSSPRLLIYDTSNLASGVPVRFSGSGSGTSYSLTISRMEAEDAATYNCQQWSSYPLTFGAGTKLELK
notes: mouse IgG, kappa light chain; also called clone #43; purified antibody 43
B5: antibody 42 (antibody, V domains shown)
VH: B3 VH with F24L, M34R, S63P, A74D, A80V, K83R, S101Q, N111D
VL: B4 VL with Q1L, R18K, S24G, N26T, Y33F, L45V, M77V, A82V, N86Y, S91N
notes: mouse IgG, kappa light chain; also called clone #42; purified antibody 42
B6: antibody 44 (antibody, V domains shown)
VH: B3 VH with G44E, E58D, S63P, A74D, A80I, A85T, D91E, A98S, S101G, N111D
VL: QIVLTQSPAVMSASPGEKVTMTCTASSSVYYMYWYQQTPGSSPRLLIYDTSNLASGVPVRFSGSGSGTSYSLTISRMEAEDAATYYCQQWNTYPLTFGAGTKLELK
notes: mouse IgG, kappa light chain; also called clone #44; purified antibody 44
B7: antibody 22 (antibody, V domains shown)
VH: B3 VH with A80V
VL: B3 VL with C31Y, S84T
notes: mouse IgG, kappa light chain; also called clone #22; purified antibody 22
B8: antibody 48 (antibody, V domains shown)
VH: QVQLQQSGTELVRPGTSVKVSCKASGYAFTNYLIEWVKQRPGQGLEWIGVINPGSGFTKYNEKFKGKATLTADKSSSTVYMHLSSLTSEDSAVYFCARGLYRAMDYWGQGTSVTVSS
VL: DIQMTQSPASQSASLGESVTITCLASQTIATWLAWYQQKPGKSPQLLIYGATTLADGVPSRFSGGGSGTKFSFKISSLQAEDFVSYYCQQLYSTPYTFGGGTKLEIK
notes: mouse IgG, kappa light chain; also called clone #48; purified antibody 48
B9: antibody 50 (antibody, V domains shown)
VH: B8 VH with T9A, T16A, T30S, V79A, H82Q
VL: B8 VL with A30G, G50A, T52A, T53S, S85N, L91I
notes: mouse IgG, kappa light chain; also called clone #50; purified antibody 50
B10: antibody 34 (antibody, V domains shown)
VH: QVTLKESGPGILQPSQTLSLTCSFSGFSLSTFSLGVGWIRQSSGKGLEWLAHIWWDDEKYYNPALKSRLTISKDTSKNQVFLKIANVDAADTATYYCARAYYSKSYYALDYWGQGTSVTVSS
VL: DIQMTQSPSSLSASLGERVSLTCRASQEISGYLSWLQQKPDGTIKRLIYAASTLDSGVPKRFSGSRSGSDYSLAISSLESEDFADYYCLQYANFPFTFGSGTKLEIK
notes: mouse IgG, kappa light chain; also called clone #34; purified antibody 34

Assays:
hiR1-FL-WT-T7 = biological target: T1, hiR1-FL-WT-T7; test: FACS, MEF-DKO cells, 3 µg/ml
hiR2-FL-E557D-T7 = biological target: T2, hiR2-FL-E557D-T7; test: FACS, MEF-DKO cells, 3 µg/ml

Row | Binder | loss of binding vs wild type (hiR1-FL-WT-T7) [%] | loss of binding vs wild type (hiR2-FL-E557D-T7) [%]
1 | B1 | ≥ 95 | 
2 | B2 | ≥ 95 | ≥ 60
3 | B3 | ≥ 95 | ≥ 60
4 | B4 | ≥ 95 | ≥ 30
5 | B5 | ≥ 95 | ≥ 30
6 | B6 | ≥ 95 | ≥ 30
7 | B7 | ≥ 95 | ≥ 30
8 | B8 | ≥ 60 | ≥ 30
9 | B9 | ≥ 95 | ≥ 30
10 | B10 | ≥ 95 | ≥ 60
